Experimental findings from patent publication US20040018971A1 are described below.

For assay [1], the target named is HLA-A*2401 (human). Nature of the assay: inhibition of 125I probe peptide binding to purified HLA; IC50 standard/IC50 test.
Assay [2] addresses HLA-DR3 (DRB1*0301), purified HLA class II molecule (human). The experiment in a line: competition with 125I-labelled probe peptide, purified HLA-DR.
For assay [3], the target named is HLA-A*2401 (purified HLA class I molecule) (human). The experiment in a line: competition with 125I-labelled standard peptide for purified HLA, gel filtration. To be noted: scale: ratio.
Assay [4] concerns the target HLA-A*2401 (human). The description is as above.
The target in assay [5] is HLA-A*2401 (purified HLA class I molecule) (human). The experiment in a line: competition with 125I-labelled probe peptide for purified HLA, gel filtration. The conditions noted are these: scale: ratio.

As to “HER2/neu 172-181 (from UniProt P04626 172-181) (peptide)”, the relative binding ratio in assay [1] worked out at 0.0022.

As for “HER2/neu 705-714 (from UniProt P04626 705-714) (peptide)”, in assay [1], the relative binding ratio was found to be 0.0002.

Turning to “HER2/neu 705-715 (from UniProt P04626 705-715) (peptide)”, the relative binding ratio in assay [1] is -0.0003.

For HER2/neu 780-790 (peptide), the relative binding ratio in assay [1] came to 0.032.

On to “HER2/neu DR supermotif exemplary 15-mer … (position 8) (peptide)”, for which the relative binding ratio (ratio (IC50 standard / IC50 test)) in assay [2] was determined as 0.001.

As to “HER2/neu DR supermotif exemplary 15-mer … (position 666) (peptide)”, in assay [2], the relative binding ratio (ratio (IC50 standard / IC50 test)) worked out at 0.0021.

Take “HER2/neu DR supermotif exemplary 15-mer … (position 783) (peptide)”: the relative binding ratio (ratio (IC50 standard / IC50 test)) in assay [2] is 0.0062.

In the case of “HER2/neu DR supermotif exemplary 15-mer … (position 912) (peptide)”, the relative binding ratio (ratio (IC50 standard / IC50 test)) in assay [2] was determined as 0.001.

Consider “HER2/neu peptide, position 172, 10 amino acids”, for which the relative binding ratio in assay [3] was 0.0022.

“HER2/neu peptide, position 780, 11 amino acids”: the relative binding ratio (IC50 of standard peptide / IC50 of test peptide) (ratio to standard peptide) in assay [4] was 0.032.

Turning to “HER2/neu peptide, position 952, 10 amino acids”, the relative binding ratio in assay [5] came to 0.0019.
